Reference: patent publication US20210095032A1 (SALUBRIS CHENGDU BIOTECH, published 2021)
Like-named read-outs stand apart in the source and are kept apart here.

Experiments:
Assay in all cases: capture ELISA, antibody captured on plate, biotin-labeled human PD-1 Fc in solution
[1] = molecular target: T1, biotin-labeled human PD-1 Fc protein (human, biotin-labeled (site not stated))
T1 construct: also called PD-1-Fc-biotin
Experimental: (§1) Plates were washed 4 times with wash buffer (PBS+0.05% Tween-20, PBST) and then blocked with 200 μl/well blocking buffer (5% w/v non-fatty milk in PBST) for 2 hours at 37° C. […] After a final wash, plates were incubated with 100 μl/well ELISA substrate TMB (Innoreagents). The reaction was stopped in 15 minutes at 25° C. with 50 μl/well 1M H₂SO₄, and the absorbance was read at 450 nm. Data were analyzed using Graphpad Prism software and EC₅₀ values were reported.

[2] = molecular target: T1, biotin-labeled human PD-1 Fc protein; remark: listed apart in the source
Experimental: as §1

[3] = molecular target: T1, biotin-labeled human PD-1 Fc protein; remark: listed apart in the source
Experimental: as §1

[4] = molecular target: T1, biotin-labeled human PD-1 Fc protein; remark: listed apart in the source
Experimental: as §1

T1 sequence (chain, as listed by the source limits assumed): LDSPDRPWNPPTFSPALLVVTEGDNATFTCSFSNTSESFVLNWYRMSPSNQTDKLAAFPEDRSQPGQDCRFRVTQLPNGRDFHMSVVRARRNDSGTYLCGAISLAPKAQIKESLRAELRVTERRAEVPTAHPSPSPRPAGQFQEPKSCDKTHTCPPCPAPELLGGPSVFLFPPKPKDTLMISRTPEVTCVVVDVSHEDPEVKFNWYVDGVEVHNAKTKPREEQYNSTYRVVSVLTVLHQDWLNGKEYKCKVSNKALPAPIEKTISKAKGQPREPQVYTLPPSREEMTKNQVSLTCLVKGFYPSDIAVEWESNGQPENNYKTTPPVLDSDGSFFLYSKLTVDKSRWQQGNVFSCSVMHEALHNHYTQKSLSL

Row | Binder | EC50 [2] | EC50 [3] | other results
1 | huD2A4-V1 (antibody, human IgG1, kappa, Humanized D2A4, human IgG1/kappa) heavy: not shown light: DIQMTQSPSSVSASVGDRVTITCLASQTIGTWLAWYQQKPGKSPKLLIYAATSLADGVPSRFSGSGSGTDFTLTISSLQPEDFATYYCQQVSSIPWTFGGGTKVEIKRTVAAPSVFIFPPSDEQLKSGTASVVCLLNNFYPREAKVQWKVDNALQSGNSQESVTEQDSKDSTYSLSSTLTLSKADYEKHKVYACEVTHQGLSSPVTKSFNRGEC | – | – | EC50 [1]: 0.385 ng/mL
2 | huD2A4-V2 (antibody, human IgG1, kappa, Humanized D2A4, human IgG1/kappa) heavy: not shown light: DIQMTQSPSSVSASVGDRVTITCLASQTIGTWLAWYQQKPGKSPKLLIYAATSLADGVPSRFSGSGSGTDFTLTISSLQPEDFATYYCQQVSSIPWTFGGGTKVEIKRTVAAPSVFIFPPSDEQLKSGTASVVCLLNNFYPREAKVQWKVDNALQSGNSQESVTEQDSKDSTYSLSSTLTLSKADYEKHKVYACEVTHQGLSSPVTKSFNRGEC | – | – | EC50 [1]: 0.379 ng/mL
3 | huD2A4-V3 (antibody, human IgG1, kappa, Humanized D2A4, human IgG1/kappa) heavy: not shown light: DIQMTQSPSSVSASVGDRVTITCLASQTIGTWLAWYQQKPGKSPKLLIYAATSLADGVPSRFSGSGSGTDFTLTISSLQPEDFATYYCQQVSSIPWTFGGGTKVEIKRTVAAPSVFIFPPSDEQLKSGTASVVCLLNNFYPREAKVQWKVDNALQSGNSQESVTEQDSKDSTYSLSSTLTLSKADYEKHKVYACEVTHQGLSSPVTKSFNRGEC | – | – | EC50 [1]: 0.55 ng/mL
4 | huD2A4-V4 (antibody, human IgG1, kappa, V domains shown, Humanized D2A4, human IgG1/kappa) VH: EVQLVESGGGLVQPGGSLRLSCAASGFTFSSYTMSWVRQAPGKGLEWVATISGGGSNTYYPDSVKGRFTISRDNSKNTLYLQMNSLRAEDTAVYYCARQAFYSNYWYFDVWGAGTTVTVSS VL: DIQMTQSPSSVSASVGDRVTITCLASQTIGTWLAWYQQKPGKAPKLLIYAATSLADGVPSRFSGSGSGTDFTLTISSLQPEDFATYYCQQVSSIPWTFGGGTKVEIKR | – | – | EC50 [1]: 0.349 ng/mL
5 | huD2H3-V1 (antibody, human IgG1, kappa, Humanized D2H3, human IgG1/kappa) heavy: not shown light: DIVLTQSPDSLAVSLGERATINCRASESVSLHGTRLMHWYQQKPGQPPKLLISLGSNLESGVPDRFSGSGSETDFTLTISSLQAEDVAVYFCQQSIEDPWTFGQGTKLEIKRTVAAPSVFIFPPSDEQLKSGTASVVCLLNNFYPREAKVQWKVDNALQSGNSQESVTEQDSKDSTYSLSSTLTLSKADYEKHKVYACEVTHQGLSSPVTKSFNRGEC | 0.28 ng/mL | – | –
6 | huD2H3-V2 (antibody, human IgG1, kappa, V domains shown, Humanized D2H3, human IgG1/kappa) VH: EVQLVQSGAEVKKPGSSVKVSCKASGYTFTNYWMHWVRQAPGQGLEWIGAIFPRNSETNYNQKFKARATLTADTSTSTAYMELSSLRSEDTAVYFCTRNRYGLDYWGQGTLVTVSS VL: DIVLTQSPDSLAVSLGERATINCRASESVSLHGTRLMHWYQQKPGQPPKLLISLGSNLESGVPDRFSGSGSETDFTLTISSLQAEDVAVYFCQQSIEDPWTFGQGTKLEIKR | 0.21 ng/mL | – | –
7 | huD2H3-V4 (antibody, human IgG1, kappa, V domains shown, Humanized D2H3, human IgG1/kappa) VH: EVQLVQSGAEVKKPGSSVKVSCKSSGYTFTNYWMHWVRQAPGQGLEWIGAIFPRNSETNYNQKFKARVTLTADTSTSTAYMELSSLRSEDTAVYFCTRNRYGLDYWGQGTLVTVSS VL: DIVLTQSPDSLAVSLGERATINCRASESVSLHGTRLMHWYQQKPGQPPKLLISLGSNLESGVPDRFSGSGSETDFTLTISSLQAEDVAVYFCQQSIEDPWTFGQGTKLEIKR | 0.28 ng/mL | – | –
8 | huD2H3-V8 (antibody, human IgG1, kappa, Humanized D2H3, human IgG1/kappa) heavy: not shown light: DIVMTQSPDSLAVSLGERATINCRASESVSLHGTRLMHWYQQKPGQPPKLLISLGSNLESGVPDRFSGSGSETDFTLTISSLQAEDVAVYFCQQSIEDPWTFGQGTKLEIKRTVAAPSVFIFPPSDEQLKSGTASVVCLLNNFYPREAKVQWKVDNALQSGNSQESVTEQDSKDSTYSLSSTLTLSKADYEKHKVYACEVTHQGLSSPVTKSFNRGEC | – | 0.171 ng/mL | –
9 | huD2H3-V10 (antibody, human IgG1, kappa, V domains shown, Humanized D2H3, human IgG1/kappa) VH: EVQLVQSGAEVKKPGSSVKVSCKSSGYTFTNYWMHWVRQAPGQGLEWIGAIFPRNSETNYNQKFKARATLTADTSTSTAYMELSSLRSEDTAVYFCTRNRYGLDYWGQGTLVTVSS VL: DIVLTQSPDSLAVSLGERATINCRASESVSLHGTRLMHWYQQKPGQPPKLLISLGSNLESGVPDRFSGSGSGTDFTLTISSLQAEDVAVYFCQQSIEDPWTFGQGTKLEIKR | – | 0.505 ng/mL | –
10 | huD2H3-V12 (antibody, human IgG1, kappa, V domains shown, Humanized D2H3, human IgG1/kappa; also called huPD1-D2H3-V12) VH: EVQLVQSGAEVKKPGSSVKVSCKASGYTFTNYWMHWVRQAPGQGLEWMGAIFPRNSETNYNQKFKARVTITADESTSTAYMELSSLRSEDTAVYYCTRNRYGLDYWGQGTLVTVSS VL: DIVLTQSPDSLAVSLGERATINCRASESVSLHGTRLMHWYQQKPGQPPKLLISLGSNLESGVPDRFSGSGSETDFTLTISSLQAEDVAVYFCQQSIEDPWTFGQGTKLEIKR | – | – | EC50 [4]: 0.354 ng/mL
11 | huD2H3-V5 (antibody, human IgG1, kappa, V domains shown, Humanized D2H3, human IgG1/kappa) VH: EVQLVQSGAEVKKPGSSVKVSCKSSGYTFTNYWMHWVRQAPGQGLEWIGAIFPRNSETNYNQKFKARATITADTSTSTAYMELSSLRSEDTAVYFCTRNRYGLDYWGQGTLVTVSS VL: DIVLTQSPDSLAVSLGERATINCRASESVSLHGTRLMHWYQQKPGQPPKLLISLGSNLESGVPDRFSGSGSETDFTLTISSLQAEDVAVYFCQQSIEDPWTFGQGTKLEIKR | 0.32 ng/mL | – | –

Continued, in another order:

Row | EC50 [2] | EC50 [3] | Binder | other results
12 | – | 0.157 ng/mL | huD2H3-V7 (antibody, human IgG1, kappa, V domains shown, Humanized D2H3, human IgG1/kappa) VH: EVQLVQSGAEVKKPGSSVKVSCKSSGYTFTNYWMHWVRQAPGQGLEWIGAIFPRNSETNYNQKFKARATLTADTSTSTAYMELSSLRSEDTAVYYCTRNRYGLDYWGQGTLVTVSS VL: DIVLTQSPDSLAVSLGERATINCRASESVSLHGTRLMHWYQQKPGQPPKLLISLGSNLESGVPDRFSGSGSETDFTLTISSLQAEDVAVYFCQQSIEDPWTFGQGTKLEIKR | –
13 | – | 0.17 ng/mL | huD2H3-V11 (antibody, human IgG1, kappa, V domains shown, Humanized D2H3, human IgG1/kappa) VH: EVQLVQSGAEVKKPGSSVKVSCKSSGYTFTNYWMHWVRQAPGQGLEWIGAIFPRNSETNYNQKFKARATLTADTSTSTAYMELSSLRSEDTAVYFCTRNRYGLDYWGQGTLVTVSS VL: DIVLTQSPDSLAVSLGERATINCRASESVSLHGTRLMHWYQQKPGQPPKLLISLGSNLESGVPDRFSGSGSETDFTLTISSLQAEDVAVYYCQQSIEDPWTFGQGTKLEIKR | –
14 | 0.19 ng/mL | – | huD2H3-V3 (antibody, human IgG1, kappa, V domains shown, Humanized D2H3, human IgG1/kappa) VH: EVQLVQSGAEVKKPGSSVKVSCKSSGYTFTNYWMHWVRQAPGQGLEWMGAIFPRNSETNYNQKFKARATLTADTSTSTAYMELSSLRSEDTAVYFCTRNRYGLDYWGQGTLVTVSS VL: DIVLTQSPDSLAVSLGERATINCRASESVSLHGTRLMHWYQQKPGQPPKLLISLGSNLESGVPDRFSGSGSETDFTLTISSLQAEDVAVYFCQQSIEDPWTFGQGTKLEIKR | –
15 | – | 0.358 ng/mL | huD2H3-V9 (antibody, human IgG1, kappa, V domains shown, Humanized D2H3, human IgG1/kappa) VH: EVQLVQSGAEVKKPGSSVKVSCKSSGYTFTNYWMHWVRQAPGQGLEWIGAIFPRNSETNYNQKFKARATLTADTSTSTAYMELSSLRSEDTAVYFCTRNRYGLDYWGQGTLVTVSS VL: DIVLTQSPDSLAVSLGERATINCRASESVSLHGTRLMHWYQQKPGQPPKLLIYLGSNLESGVPDRFSGSGSETDFTLTISSLQAEDVAVYFCQQSIEDPWTFGQGTKLEIKR | –
16 | 0.17 ng/mL | – | huD2H3-V6 (antibody, human IgG1, kappa, V domains shown, Humanized D2H3, human IgG1/kappa) VH: EVQLVQSGAEVKKPGSSVKVSCKSSGYTFTNYWMHWVRQAPGQGLEWIGAIFPRNSETNYNQKFKARATLTADESTSTAYMELSSLRSEDTAVYFCTRNRYGLDYWGQGTLVTVSS VL: DIVLTQSPDSLAVSLGERATINCRASESVSLHGTRLMHWYQQKPGQPPKLLISLGSNLESGVPDRFSGSGSETDFTLTISSLQAEDVAVYFCQQSIEDPWTFGQGTKLEIKR | –
